# The RNAGym collection of RNA variant scans (doi:10.7554/elife.90254)
# B1: LINE1-full (parent)
# chain: UACGUAGGUGGUUUUCCCCUGAUAGUGCUAAGGGGGCCUGGAAGUUUGGACUGGGCAGAGCUCAACACAGCGUGGCAAAGUGGCUGUGGCUAGACUGCCUCUCUGGAUUCCUCGUCACUCAGCAGGGCAUCUCUGAGAGAAAUGCC
# Variants of: B1
# Test: self-cleavage, relative activity (ratio to wild type); higher = more cleavage; in vitro, sequencing; the parent is a self-cleaving ribozyme
row,Variant,self-cleavage
1,U14G A141G,0.89
2,U102A G105U,1.09
3,G4A A77G,1.68
4,U85C G93U,0.06
5,A43U A79U,2.2
6,U1G A138G,1.57
7,U14C A141G,1.03
8,U14A A57G,0.75
9,U115A C123A,1.7
10,U87A A140U,0.11
11,U12C U134G,1.97
12,U15A C111U,1.37
13,G135U A140U,1.13
14,A57G G125U,0.92
15,U1A G126C,1.06
16,U47G U104C,1.48
17,C3A G122A,1.51
18,A6U U87C,0.16
19,U14C U26C,1.12
20,C120U U130A,1.58
21,U39A A138G,1.27
22,U52A G144A,1.44
23,C28A A67G,0.55
24,C68U G135A,0.22

row,Variant,self-cleavage
1,A59U A129C,1.15
2,A65G A121G,0.08
3,U15C G32U,1.15
4,U100C U109C,1.37
5,U14C G40U,1.06
6,U85A A92U,0.11
7,G83A C90U,0.06
8,A6U U143G,1.12
9,A31U U100C,1.41
10,C37G U52C,0.75
11,A22G U102A,1.5
12,G83C U143G,1.08
13,U12G U73C,1.54
14,A22U A121G,1
15,U108C A136U,1.93
16,U47A A92G,0.17
17,U73C C90G,0.01
18,U1A C61U,0.08
19,U1G U52C,2.63
20,U73A A117U,1.81
21,U45C G74A,1.25
22,A31G A136U,1.26
23,G7A U46A,1.23
24,C3G A57U,0

row,Variant,self-cleavage
1,U23A U85C,0.28
2,U29C C111U,1.13
3,U47C G89U,0.04
4,U39A G122A,0.54
5,U62C G83U,0.03
6,U73A U100C,2.71
7,U46A,1.17
8,U14C G137A,0.82
9,U9G U47C,0.54
10,G125U A138G,2.25
11,A2G U87C,0.35
12,A79G G89U,0.05
13,U52A A129G,1.3
14,A67G U132A,0.64
15,A2G U20A,0.37
16,A67G A77G,0.91
17,U29C C131U,0.93
18,U13C U143C,1.06
19,U73C C128A,0.94
20,G89U U134G,0.04
21,U5G A141C,0.56
22,U39G U85C,0.14
23,A43G G58A,0.05
24,A121U G137A,2.09

row,Variant,self-cleavage
1,U15C U112A,1.64
2,A6U U46C,0.14
3,U9G A142G,0.95
4,A30G U47C,1.09
5,U45A U62A,0
6,U62A A121U,0.06
7,U5C A129G,1.43
8,U47C G74C,1.61
9,G32A U39A,1.66
10,U47A U62C,0.06
11,A141U U143A,0.6
12,U29C C113U,1.44
13,U5C A107G,1.13
14,A117C U119A,1.77
15,G74A A117C,1.63
16,U119A A141G,1.74
17,G8U U81A,2.37
18,A107U C113A,1.68
19,A65U C99U,0.1
20,A22G U119G,1.51
21,U102A A117U,1.37
22,G34A A79U,2.33
23,A65G C145G,0.02
24,U91A U96A,0.04

row,Variant,self-cleavage
1,A42G G54C,0.84
2,U5C A31C,0.75
3,A59U U62A,0.05
4,A79U U109C,1.34
5,U23A A64G,0.23
6,U1C G35C,1.26
7,U9A U73A,1.29
8,U1C A24C,0.91
9,U12A A30U,1.63
10,U15A U100A,0.59
11,U115C C146U,1.31
12,U26C U130A,1.35
13,U15A C95U,0.41
14,U12A U91C,0.54
15,U1C C56U,0.07
16,G55C C146U,0.25
17,A92U U115A,0.62
18,U96A A121C,0.06
19,U115G U143C,1.86
20,A117G U130A,1.85
21,A31G A77G,2.49
22,U85A U102C,0.13
23,U39G A64G,0.09
24,A43G U134C,1.09

row,Variant,self-cleavage
1,A24U U132C,1.07
2,G4U A121U,1.23
3,U14C U115A,1.45
4,A79G C145U,1.09
5,A65U U109C,0.18
6,U26A A141U,0.61
7,G8U U119A,1.51
8,U132C A136G,1.47
9,G35U C113U,1.09
10,G32U A94G,0.2
11,C17U A67G,0.34
12,U52C U87G,0
13,G32A A140G,1.61
14,A42G U143A,1.85
15,A57C A78G,0
16,U1C G7A,0.7
17,G75A U104C,1.43
18,U13C A64G,0.35
19,A67G U108A,0.5
20,G44A U132C,1.31
21,U39G U52C,0
22,U52A U134C,2.25
23,U39A A67U,0.07
24,U73C G137U,2.46

row,Variant,self-cleavage
1,A31G A117C,2.3
2,C19U A121G,0.42
3,U26C A138G,1.78
4,U12C A136U,1.43
5,C28U U81C,1.39
6,U20C U46A,0.85
7,C71U U143C,0.64
8,C17U A121G,1.53
9,G74A U119C,1.71
10,A64U U112C,0.44
11,U108C U132A,2.04
12,C51G,1.63
13,U1A A79G,1.31
14,U102A A124G,1.08
15,C116A,1.16
16,A67C A69G,0
17,U73A C99A,0.92
18,U85G U109C,0
19,U14C U130C,1.5
20,A78G U91C,0.29
21,U104C A138U,1.87
22,G32A U96C,0.13
23,A121U U132C,1.36
